What was measured:
[1] = target: human CD81 on CD81-expressing cells (Jurkat E6.1, human PBMC, Ramos) (human) (UniProt P60033); assay: flow cytometry, Ramos cells, 10 µg/mL
[2] = target: human CD81 on CD81-expressing cells (Jurkat E6.1, human PBMC, Ramos) (human) (UniProt P60033); assay: flow cytometry, Ramos cells, 1 µg/mL
[3] = target: human CD81 on CD81-expressing cells (Jurkat E6.1, human PBMC, Ramos) (human) (UniProt P60033); assay: flow cytometry, Jurkat cells, 0.01 µg/mL
[4] = target: human CD81 on CD81-expressing cells (Jurkat E6.1, human PBMC, Ramos) (human) (UniProt P60033); assay: flow cytometry, Ramos cells, 0.1 µg/mL
[5] = target: human CD81 on CD81-expressing cells (Jurkat E6.1, human PBMC, Ramos) (human) (UniProt P60033); assay: flow cytometry, Jurkat cells, 1 µg/mL
[6] = target: human CD81 on CD81-expressing cells (Jurkat E6.1, human PBMC, Ramos) (human) (UniProt P60033); assay: flow cytometry, Jurkat cells, 0.1 µg/mL
[7] = target: human CD81 on CD81-expressing cells (Jurkat E6.1, human PBMC, Ramos) (human) (UniProt P60033); assay: flow cytometry, Ramos cells, 0.01 µg/mL
[8] = target: human CD81 on CD81-expressing cells (Jurkat E6.1, human PBMC, Ramos) (human) (UniProt P60033); assay: flow cytometry, Jurkat cells, 10 µg/mL
[9] = target: human CD81 on CD81-expressing cells (Jurkat E6.1, human PBMC, Ramos) (human) (UniProt P60033); assay: flow cytometry, human PBMC
[10] = target: human CD81 on CD81-expressing cells (Jurkat E6.1, human PBMC, Ramos) (human) (UniProt P60033); assay: flow cytometry, Jurkat E6.1 cells

Sequence of human CD81 on CD81-expressing cells (Jurkat E6.1, human PBMC, Ramos) (human) (P60033 whole entry): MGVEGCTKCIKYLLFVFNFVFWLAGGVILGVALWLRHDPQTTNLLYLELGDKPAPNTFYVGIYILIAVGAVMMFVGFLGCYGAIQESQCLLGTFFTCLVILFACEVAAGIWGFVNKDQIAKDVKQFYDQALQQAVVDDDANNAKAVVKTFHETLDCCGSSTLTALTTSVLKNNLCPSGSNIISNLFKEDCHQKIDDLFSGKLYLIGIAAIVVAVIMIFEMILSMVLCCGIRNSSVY

geometric mean FL2 [1]	geometric mean FL2 [2]	geometric mean FL2 [3]	geometric mean FL2 [4]	geometric mean FL2 [5]	geometric mean FL2 [6]	geometric mean FL2 [7]	geometric mean FL2 [8]	binding ratio to cells (%) [9] [%]	binding ratio to cells (%) [10] [%]	Substance
8	5	4	4	4	4	4	8	–	–	control human IgG (AbD Serotec) (antibody)
–	–	–	–	–	–	–	–	1	1	control human IgG4 (Acris) (antibody)

Reference: US20150139990A1
